± gives the half width of the 95% confidence interval.
Tests used:
[1] = folding stability dG unfold (combined trypsin and chymotrypsin); higher = more stable
Procedure, shortened: (§1)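 Designed mini-proteins (under 80 residues, no cysteine) in a PA-tagged cDNA display construct were digested with trypsin and chymotrypsin. Each protease was used at 11 concentrations (threefold dilutions) plus a no-protease condition, followed by sequencing. K50 was inferred by Bayesian fitting of sequencing counts, and unfolding free energy was derived against a sequence-predicted unfolded-state K50 and a shared folded-state K50, per protease or combined. Only designs with AlphaFold2 dimer inter-PAE above 15 were kept.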

[2] = folding stability dG unfold from trypsin proteolysis; higher = more stable
Procedure, shortened: as §1

[3] = folding stability dG unfold from chymotrypsin proteolysis; higher = more stable
Procedure, shortened: as §1

Row | Sequence | folding stability dG unfold [1] [kcal/mol] | folding stability dG unfold [2] [kcal/mol] | folding stability dG unfold [3] [kcal/mol]
1 | SAGGSAGGSAGGMTIEINGKKYEIVEVKEEKGKLTLKIKVNGKLLEIEIDKDKNEIKIYPSAGGSAGGSAGG [r7_553_TrROS_Hall] | 3.91 ± 0.14 | 3.44 ± 0.14 | 4.05 ± 0.1
2 | SAGSMSSVKKVKITTTSYDPTNGAKKETSYDVTVTTTTYPATGEITRTIYFTSTGKWKVEHLPPGAPLASAG [r14_587_JUSTAS] | 1.97 ± 0.14 | 1.48 ± 0.066 | 2.15 ± 0.12
3 | SAGGKYKIVEITIKVEPGQSPEEIAAEIAKKLAPPGEKVKVKVEKKDGYLRIYIINEETGEVVEEFELSAGG [r13_724_TrROS_Hall] | 1.88 ± 0.14 | 1.66 ± 0.051 | 1.91 ± 0.06
4 | SAGGSAGGSAGKEEIKIEITKVEPLEDGSYIAEVIATPKNGKKIPYTALIDPKTGKITIGSAGGSAGGSAGG [r11_31_TrMRF] | 0.426 ± 0.087 | 0.527 ± 0.11 | 0.18 ± 0.14
5 | SAGGEVLVIELSLEELKNLKPNQTVKIKLPDGSELEVRVEEVDGRLYLFVRNKENPEEVELIEEITIESAGG [r13_745_TrROS_Hall] | 3.3 ± 0.065 | 2.79 ± 0.062 | 3.48 ± 0.049
6 | SMKIVIVKNKDGTVIVRITFPNGEEITITAKTEEEAKKAIEELIKKLQEKYNIKIKIEVKPVKPGEVIEESA [r9_786_TrROS_Hall] | 2.93 ± 0.15 | 2.92 ± 0.093 | 2.84 ± 0.08
7 | SAGGSAGGSAGGKPKIEIELTFIDEDGYAYRLRAEIEIDEDGNVHIEVEIEKVPLPEGLSAGGSAGGSAGGS [r10_563_TrROS_Hall] | 3.18 ± 0.21 | 2.9 ± 0.14 | 3.28 ± 0.13
8 | SAGMMEIVEVKEVDGRLELKIKDKETGEEFTITVERKEDGELKVTIEMSDEAAERLRELFPEIDRLEIKSAG [r5_933_TrROS_Hall] | 2.93 ± 0.097 | 2.19 ± 0.069 | 3.37 ± 0.19
9 | SAGGSAGGSYLDPNKVYLVETEVVGDKVVFTLRDPETGETFVLEADASKEVLKPGDRVLALVASAGGSAGGS [r12_525_TrMRF] | 1.82 ± 0.12 | 1.47 ± 0.047 | 1.97 ± 0.065
10 | SAGGPKKAIEILKKEGFTIKSVDPKKKKVIATPKETDIPIEIYVIGDDKVLIVEYLKGKPIIKEFKKSAGGS [r16_197_TrMRF] | 0.829 ± 0.15 | 0.834 ± 0.04 | 0.741 ± 0.12
11 | SAGGSAGGSNELLKKLGLKPDQTILVLARPGEIEKLRKEKPIKRIEVTPLPDDLYLYRIEVEGSAGGSAGGS [r12_750_TrMRF] | 0.192 ± 0.19 | -0.0878 ± 0.16 | 0.095 ± 0.38
12 | SAGGSAEEAEELARRLAAELQAETGLEVTVEVRYDEETDTVVIRMTVRDRATGEERTLELTLRLPDSAGGSA [r15_464_TrROS_Hall] | 3.51 ± 0.059 | 3.04 ± 0.063 | 3.72 ± 0.052
13 | SAKYKIIEAKPGKNVVTITVEYTLPNGEKLTKPIPINAINPVIVEVSEDSITIYDPNNGKLITFPAEKLSAG [r14_947_TrMRF] | 2.49 ± 0.12 | 2.1 ± 0.12 | 2.87 ± 0.037
14 | SAGGSAGGSEKKPPEVTVVIKLPKGTSLEELLAALPPGAKAEIVEVVKVDEEKNEVYVKIRLTSAGGSAGGS [r12_469_TrROS_Hall] | 2.61 ± 0.095 | 2.26 ± 0.11 | 2.71 ± 0.04
15 | SAGGSAVEFTEPGAELLSEEKLPDGTVVKRVLLPDGSVLLLLPDNSIKTRSLSNPNTSLSEWDPELSAGGSA [r15_692_JUSTAS] | 0.491 ± 0.26 | 0.613 ± 0.17 | 0.332 ± 0.32
16 | SAGGSAGGSPETVTLTLTVTVKTVTLDPETGELTTTTHTVTLTLTLSKEDLEALLKSPELKKLSAGGSAGGS [r12_1015_TrROS_Hall] | 2.76 ± 0.17 | 1.84 ± 0.05 | 3.09 ± 0.067

Row | Sequence | folding stability dG unfold [1] [kcal/mol] | folding stability dG unfold [2] [kcal/mol] | folding stability dG unfold [3] [kcal/mol]
17 | SAHTISIRIPPNMKPITAEELKKEPGYEVKDINVYPNEDGNMYFTIEVEPGMPPKKMDEILERIRDRMGSAG [r14_421_TrROS] | 0.862 ± 0.059 | 0.764 ± 0.034 | 0.911 ± 0.038
18 | SAGGSAGGSAGGEEEYVTLTIKVYDPKTREPVKEITIVLPKKNMTPEQLRELLKELGIEVSAGGSAGGSAGG [r7_903_TrROS_Hall] | 2.98 ± 0.23 | 2.87 ± 0.12 | 3.01 ± 0.083
19 | SAGGSSMVDIKPGLVTEIRVETLPNGERVYVVEIPLENGERAVVKISEKFKSEEEKLKAIYEAVSKSAGGSA [r2_347_JUSTAS] | 2.24 ± 0.12 | 1.71 ± 0.05 | 2.47 ± 0.039
20 | SGMKSVTTPVSLTINTSPEEAEEFIEKLAKERGIEDVTVVKVTTDPATGTLTVEAELHTTIPPLPPPSSVSA [r9_918_JUSTAS] | 1.1 ± 0.27 | 1.07 ± 0.044 | 1.17 ± 0.061
21 | SAGGSEPPKIKKIKDINVKHERHNDRPYWEVKIRIKLKNGNTAEIDIEMPGMPPEEAREQIKDILKSAGGSA [r2_26_TrROS] | 0.938 ± 0.36 | 0.391 ± 0.15 | 0.872 ± 0.089
22 | SASSELLELLKALPTPEVPTDPIFTLEEPDRPIRVLSYDPETGLVTMLIPGTGARLIRDPASGTYTLLPSAG [r14_359_JUSTAS] | 0.578 ± 0.066 | -0.184 ± 0.07 | 0.92 ± 0.071
23 | SAMKIKVPPGAEIITEDGEKIEPGQEVEVTDIEFDEETGEVHITVKIKNPETGEEIEEKVTIRFPKEEESAG [r14_258_TrROS_Hall] | 1.09 ± 0.15 | 1.29 ± 0.11 | 0.977 ± 0.042
24 | SAGGSAGGSEWTIESIRPRPDGSLIARVRPEGVNVSVEVEFDTLEELLAFAKLLEELGGKVTGSAGGSAGGS [r20_177_TrMRF] | 1.82 ± 0.058 | 1.62 ± 0.04 | 1.98 ± 0.023
25 | SAGGSAGGSMYKVEIEIETSPEGGITIKVTIIPPDGSVIEGNLTPEEVAKRFGFPPPEILELLSAGGSAGGS [r20_235_JUSTAS] | 2.48 ± 0.14 | 2.21 ± 0.049 | 3.03 ± 0.062
26 | SAGGMGSEKLPLTLTLPGDRKLEVTVYRVGDKLYVEIKLTHGSKPLGTLTVEADSLDEVLDAAKEAASAGGS [r16_55_TrMRF] | 3.28 ± 0.15 | 2.77 ± 0.15 | 3.58 ± 0.062
27 | SANMDMPPGFKPIARDDDITIWQNPNPVYIMIRGPDGKHKMLPFNPGDPEKIKDLIREFADDGITDIMISAG [r14_12_TrROS] | 1.09 ± 0.15 | 1.43 ± 0.016 | 0.657 ± 0.12
28 | SAGGSAGGSAGGSVSSVSTTSSPVVDPETGPASTVTTHSVPGGPATTVVMTPDSTTTTGSAGGSAGGSAGGS [r10_384_JUSTAS] | 1.59 ± 0.074 | 1.92 ± 0.081 | 1.43 ± 0.038
29 | SAGGGELYIMFKFDFTFWINNGTISFDMYIMIRIPIPPPPVPIELEDDPDGSYKYEYPNGKEHEVPNSAGGS [r16_136_TrROS] | 3.23 ± 0.22 | 3.15 ± 0.1 | 3.16 ± 0.079
30 | SAGGSAGGSHRIIFRINSPGMPPRQAADRIADMLQEEHGLKIKGVDIWTYPNGSYWVTITIEPSAGGSAGGS [r12_781_TrROS] | 2.89 ± 0.073 | 2.77 ± 0.055 | 2.98 ± 0.042
31 | SAEYTPVGPNEDAEVWEVPNLGKLFTIDPKDDVVEITEVHFDDGDLSPHPHTVRVDVPEEDRDRLRDLLSAG [r14_245_TrMRF] | -0.213 ± 0.14 | 0.0643 ± 0.06 | -1.11 ± 0.58

Reference: the supplement of paper PMC12764529
